From patent US20190048062A1 (BRACCO SUISSE, published 2019)

What was measured:
Assay in all cases: flow chamber, microvesicles on selectin-Fc coating
[1] = biological target: T1, mouse Fc P-Selectin (catalog number 737-PS, R&D Systems) (mouse, UniProt Q01102 42-709)
T1 construct: Bought; coated in the flow chamber at 4 µg/mL; also called Mouse P selectin; mouse P-selectin; Fc part of the bought chimera not given
T1 sequence (looked up): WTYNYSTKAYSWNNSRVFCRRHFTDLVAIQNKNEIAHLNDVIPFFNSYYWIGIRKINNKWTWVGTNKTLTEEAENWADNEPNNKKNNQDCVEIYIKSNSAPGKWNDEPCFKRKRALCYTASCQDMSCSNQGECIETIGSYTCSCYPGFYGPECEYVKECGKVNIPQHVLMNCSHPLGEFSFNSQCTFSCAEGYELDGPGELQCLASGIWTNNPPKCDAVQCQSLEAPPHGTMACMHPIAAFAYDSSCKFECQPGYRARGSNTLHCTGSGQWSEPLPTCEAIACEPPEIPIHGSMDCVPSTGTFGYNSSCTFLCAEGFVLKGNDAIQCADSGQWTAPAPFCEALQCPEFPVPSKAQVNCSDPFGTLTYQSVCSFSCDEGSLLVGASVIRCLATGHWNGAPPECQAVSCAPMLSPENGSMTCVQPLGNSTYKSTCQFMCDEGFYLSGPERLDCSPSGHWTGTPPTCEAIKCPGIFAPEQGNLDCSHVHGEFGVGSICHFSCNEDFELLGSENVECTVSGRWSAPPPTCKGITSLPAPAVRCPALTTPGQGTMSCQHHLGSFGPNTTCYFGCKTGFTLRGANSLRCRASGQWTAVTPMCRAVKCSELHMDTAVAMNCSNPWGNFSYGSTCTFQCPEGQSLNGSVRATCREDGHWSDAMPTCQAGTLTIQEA
Description: (§1) To test the effective binding, targeted microvesicles prepared as described in WO2012/020030 (Example 6) and those prepared according to the present invention (example 8) were injected in a flow chamber set up comprising a coating of mouse Fc P-Selectin (catalog number 737-PS, R&D Systems, Minneapolis, Minn., USA) or human Fc P and E selectins (R&D catalog numbers 137-PS 50 and 724 ES 100) at 4 μg/mL. Microvesicles (at equivalent number of 80×10⁶/400 μL TBS++) were injected through the flow chamber (FCS2, Bioptech, USA) in a bolus fashion and their adhesion onto the mouse P-selectin (or human P- or E-selectin) coating layer assessed over a period of 10 min at a flow rate of 1.0 mL/min (shear rate of 714 s⁻¹) in the presence of 50% (v:v) human plasma (Stehelin & Cie A G) in TBS. A quantitative analysis of microvesicles accumulation was performed by counting the number of microvesicles adhering in the observed area at 2 min intervals over the total 10 min infusion, using the image processing program Analysis FIVE (SIS, Germany). After 10 min, five pictures were taken randomly and the number of bound microvesicles was measured and expressed as the number of bound bubbles (NBB) at 10 min. Each observed area was 183×137 μm, as measured with the aid of a stage micrometer. Measurement was performed between the middle and the exit of the chamber.
(§2) Similarly, suspensions of targeted microvesicles prepared according to example 8 (Variant 1A as targeting ligand) was injected in a flow chamber as described above, and their binding activity determined according to the above procedure.

[2] = biological target: T2, human Fc P selectin (R&D catalog number 137-PS 50) (human, UniProt P16109 42-771)
T2 construct: Bought; coated in the flow chamber at 4 µg/mL; also called Human P selectin; human P-selectin; Fc part of the bought chimera not given
T2 sequence (looked up): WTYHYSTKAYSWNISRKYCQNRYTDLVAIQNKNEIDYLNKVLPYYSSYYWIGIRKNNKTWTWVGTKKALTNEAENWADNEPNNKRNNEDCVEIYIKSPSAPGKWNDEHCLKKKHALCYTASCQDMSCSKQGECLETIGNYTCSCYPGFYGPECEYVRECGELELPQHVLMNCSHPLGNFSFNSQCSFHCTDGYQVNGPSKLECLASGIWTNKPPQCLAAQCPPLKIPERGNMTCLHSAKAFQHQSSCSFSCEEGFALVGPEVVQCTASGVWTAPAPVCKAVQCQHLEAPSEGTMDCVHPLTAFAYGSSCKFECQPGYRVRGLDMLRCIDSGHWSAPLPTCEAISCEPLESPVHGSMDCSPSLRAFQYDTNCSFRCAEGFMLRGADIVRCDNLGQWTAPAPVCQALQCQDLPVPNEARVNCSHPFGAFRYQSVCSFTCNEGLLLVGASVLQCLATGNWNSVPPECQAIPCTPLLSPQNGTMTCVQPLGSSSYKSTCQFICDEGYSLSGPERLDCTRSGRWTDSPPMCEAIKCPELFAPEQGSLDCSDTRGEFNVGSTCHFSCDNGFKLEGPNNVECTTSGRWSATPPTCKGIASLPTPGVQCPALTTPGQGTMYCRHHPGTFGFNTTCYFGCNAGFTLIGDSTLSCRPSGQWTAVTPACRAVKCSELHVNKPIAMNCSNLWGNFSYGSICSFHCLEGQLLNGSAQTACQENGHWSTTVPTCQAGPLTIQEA
Description: as §1, §2

[3] = biological target: T3, human Fc E selectin (R&D catalog number 724 ES 100) (human, UniProt P16581 22-556)
T3 construct: Bought; coated in the flow chamber at 4 µg/mL; also called Human E selectin; human E-selectin; Fc part of the bought chimera not given
T3 sequence (looked up): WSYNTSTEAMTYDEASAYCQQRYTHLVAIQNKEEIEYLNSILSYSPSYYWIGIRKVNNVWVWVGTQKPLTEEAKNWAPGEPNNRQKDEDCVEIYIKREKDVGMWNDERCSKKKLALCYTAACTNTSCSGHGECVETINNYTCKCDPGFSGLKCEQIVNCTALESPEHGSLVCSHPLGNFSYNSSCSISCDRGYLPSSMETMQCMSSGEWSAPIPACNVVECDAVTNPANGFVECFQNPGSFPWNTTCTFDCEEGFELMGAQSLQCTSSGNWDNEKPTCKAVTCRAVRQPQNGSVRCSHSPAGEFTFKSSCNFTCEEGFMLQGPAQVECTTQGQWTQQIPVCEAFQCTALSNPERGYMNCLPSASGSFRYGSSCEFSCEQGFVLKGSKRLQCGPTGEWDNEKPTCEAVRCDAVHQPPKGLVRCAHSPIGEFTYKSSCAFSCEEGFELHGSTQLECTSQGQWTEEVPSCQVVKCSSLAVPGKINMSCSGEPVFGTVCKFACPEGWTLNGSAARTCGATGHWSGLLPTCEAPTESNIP
Description: as §1, §2

binding result [1]: binds
binding result [2]: binds
binding result [3]: binds
B1: microbubble Variant 1A (gas-filled microvesicles carrying the DSPE-PEG-SH/Variant 1A-SMCC conjugate) (other)
chain: QATEYEYLDYDFLPETEPPEMLRNSTDTTPLTGPGTPESTTVEPAARPHTCPPCPLQQRRGLEAERARLAAQLDALRAEVARLARERDLYGGGGAGGGGKG
modifications: as Variant 1A (pyroglutamate N-terminus, sulfated Tyr 5, 7, 10, O-glycan on Thr16); reacted with Sulfo-SMCC and linked to DSPE-PEG2000-SH, held in the phospholipid envelope of the microvesicle
notes: many copies of the ligand on each microvesicle, so the read-out is multivalent adhesion; also called MB-PSGL-1 Variant 1A; microvesicles with Variant 1A
